# Experimental data: patent EP4682166A1 (Guangzhou Enmai Biotechnology Co., Ltd, dated 2026)
# T1: human NMI (N-myc Interacting protein), recombinant protein (human, UniProt Q13287 1-307, limits assumed)
# T1 construct: Gene ID: 9111; also called hNMI; antigen
# T1 sequence (looked up): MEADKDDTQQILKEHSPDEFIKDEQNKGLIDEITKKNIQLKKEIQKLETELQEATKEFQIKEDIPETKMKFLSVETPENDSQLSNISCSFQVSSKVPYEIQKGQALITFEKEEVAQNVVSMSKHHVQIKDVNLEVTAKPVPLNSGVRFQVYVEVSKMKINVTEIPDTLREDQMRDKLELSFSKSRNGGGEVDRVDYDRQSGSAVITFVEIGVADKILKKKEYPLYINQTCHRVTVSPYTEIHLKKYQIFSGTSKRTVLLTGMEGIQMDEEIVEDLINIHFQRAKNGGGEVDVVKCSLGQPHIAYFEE
# Tests used:
# [1] = biological target: T1, human NMI (N-myc Interacting protein), …; assay: ELISA EC50 against parent 94C4
# [2] = biological target: T1, human NMI (N-myc Interacting protein), …; assay: ELISA EC50 against parent 98G10
# [3] = biological target: T1, human NMI (N-myc Interacting protein), …; assay: ELISA, binding to hNMI
# [4] = biological target: T1, human NMI (N-myc Interacting protein), …; assay: ELISA EC50 against parent 98G10; remark: listed apart in the source
Binder,Fold decrease in affinity [1],EC50 [3],Fold decrease in affinity [4],further results
"94C4 mutant A32K (VH) (antibody, V domains shown) VH: QSLEESGGGLVQPEGSLTLTCKASGFDFSSNKMCWVRQAPGKGLEWIACISSASSGSSGSTYYASWAKGRFTISKTSSTTVTLQMTSLTAADMATYFCARDGYDLWGPGTLVTVSS VL: QVLTQTPSSVSAAVGGTVTISCQSSPSVYNNYLSWFQQKPGQSPKLLIYRVSTLASGVPSRFSGSGSGTQFTLTISGVQCDDAATYYCAGGYDSASDTYVFGGGTEVVVK",> 500 fold,–,–,–
"94C4 mutant D101M (VH) (antibody, V domains shown) VH: QSLEESGGGLVQPEGSLTLTCKASGFDFSSNAMCWVRQAPGKGLEWIACISSASSGSSGSTYYASWAKGRFTISKTSSTTVTLQMTSLTAADMATYFCARMGYDLWGPGTLVTVSS VL: QVLTQTPSSVSAAVGGTVTISCQSSPSVYNNYLSWFQQKPGQSPKLLIYRVSTLASGVPSRFSGSGSGTQFTLTISGVQCDDAATYYCAGGYDSASDTYVFGGGTEVVVK",> 500 fold,–,–,–
"94C4 mutant D101S (VH) (antibody, V domains shown) VH: QSLEESGGGLVQPEGSLTLTCKASGFDFSSNAMCWVRQAPGKGLEWIACISSASSGSSGSTYYASWAKGRFTISKTSSTTVTLQMTSLTAADMATYFCARSGYDLWGPGTLVTVSS VL: QVLTQTPSSVSAAVGGTVTISCQSSPSVYNNYLSWFQQKPGQSPKLLIYRVSTLASGVPSRFSGSGSGTQFTLTISGVQCDDAATYYCAGGYDSASDTYVFGGGTEVVVK",> 500 fold,–,–,–
"94C4 mutant S29D (VH) (antibody, V domains shown) VH: QSLEESGGGLVQPEGSLTLTCKASGFDFDSNAMCWVRQAPGKGLEWIACISSASSGSSGSTYYASWAKGRFTISKTSSTTVTLQMTSLTAADMATYFCARDGYDLWGPGTLVTVSS VL: QVLTQTPSSVSAAVGGTVTISCQSSPSVYNNYLSWFQQKPGQSPKLLIYRVSTLASGVPSRFSGSGSGTQFTLTISGVQCDDAATYYCAGGYDSASDTYVFGGGTEVVVK",> 500 fold,–,–,–
"94C4 mutant D101K (VH) (antibody, V domains shown) VH: QSLEESGGGLVQPEGSLTLTCKASGFDFSSNAMCWVRQAPGKGLEWIACISSASSGSSGSTYYASWAKGRFTISKTSSTTVTLQMTSLTAADMATYFCARKGYDLWGPGTLVTVSS VL: QVLTQTPSSVSAAVGGTVTISCQSSPSVYNNYLSWFQQKPGQSPKLLIYRVSTLASGVPSRFSGSGSGTQFTLTISGVQCDDAATYYCAGGYDSASDTYVFGGGTEVVVK",> 500 fold,–,–,–
"94C4 mutant D101Q (VH) (antibody, V domains shown) VH: QSLEESGGGLVQPEGSLTLTCKASGFDFSSNAMCWVRQAPGKGLEWIACISSASSGSSGSTYYASWAKGRFTISKTSSTTVTLQMTSLTAADMATYFCARQGYDLWGPGTLVTVSS VL: QVLTQTPSSVSAAVGGTVTISCQSSPSVYNNYLSWFQQKPGQSPKLLIYRVSTLASGVPSRFSGSGSGTQFTLTISGVQCDDAATYYCAGGYDSASDTYVFGGGTEVVVK",> 500 fold,–,–,–
"94C4 mutant D101E (VH) (antibody, V domains shown) VH: QSLEESGGGLVQPEGSLTLTCKASGFDFSSNAMCWVRQAPGKGLEWIACISSASSGSSGSTYYASWAKGRFTISKTSSTTVTLQMTSLTAADMATYFCAREGYDLWGPGTLVTVSS VL: QVLTQTPSSVSAAVGGTVTISCQSSPSVYNNYLSWFQQKPGQSPKLLIYRVSTLASGVPSRFSGSGSGTQFTLTISGVQCDDAATYYCAGGYDSASDTYVFGGGTEVVVK",> 500 fold,–,–,–
"94C4 mutant D97K (VL) (antibody, V domains shown) VH: QSLEESGGGLVQPEGSLTLTCKASGFDFSSNAMCWVRQAPGKGLEWIACISSASSGSSGSTYYASWAKGRFTISKTSSTTVTLQMTSLTAADMATYFCARDGYDLWGPGTLVTVSS VL: QVLTQTPSSVSAAVGGTVTISCQSSPSVYNNYLSWFQQKPGQSPKLLIYRVSTLASGVPSRFSGSGSGTQFTLTISGVQCDDAATYYCAGGYDSASKTYVFGGGTEVVVK",> 500 fold,–,–,–
"94C4 mutant S52K (VH) (antibody, V domains shown) VH: QSLEESGGGLVQPEGSLTLTCKASGFDFSSNAMCWVRQAPGKGLEWIACISKASSGSSGSTYYASWAKGRFTISKTSSTTVTLQMTSLTAADMATYFCARDGYDLWGPGTLVTVSS VL: QVLTQTPSSVSAAVGGTVTISCQSSPSVYNNYLSWFQQKPGQSPKLLIYRVSTLASGVPSRFSGSGSGTQFTLTISGVQCDDAATYYCAGGYDSASDTYVFGGGTEVVVK",> 500 fold,–,–,–
"98G10 mutant G55H (VH) (antibody, V domains shown) VH: QEQLEESGGDLVKPEGSLTLTCTASGFSFSASYWICWVRQAPGKGLEWIACIYGHSSGSAYYASWAKGRFTISKTSSTTVTLQMTSLTAADTATYFCARAGYYNYGSAGDIYPSSFKLWGPGTLVTVSS VL: DIVMTQTPASVEAAVGGTVTINCQASQSISTALAWYQQKPGQPPKLLIYTASKVASGVPSRFSGSGSGTQFTLTISDLECADAATYYCQNYYYSSSSITFGGGTEVVVK",–,–,–,Fold decrease in affinity [2]: > 100 fold
"98G10 mutant G58V (VH) (antibody, V domains shown) VH: QEQLEESGGDLVKPEGSLTLTCTASGFSFSASYWICWVRQAPGKGLEWIACIYGGSSVSAYYASWAKGRFTISKTSSTTVTLQMTSLTAADTATYFCARAGYYNYGSAGDIYPSSFKLWGPGTLVTVSS VL: DIVMTQTPASVEAAVGGTVTINCQASQSISTALAWYQQKPGQPPKLLIYTASKVASGVPSRFSGSGSGTQFTLTISDLECADAATYYCQNYYYSSSSITFGGGTEVVVK",–,–,–,Fold decrease in affinity [2]: > 100 fold
"98G10 mutant G55W (VH) (antibody, V domains shown) VH: QEQLEESGGDLVKPEGSLTLTCTASGFSFSASYWICWVRQAPGKGLEWIACIYGWSSGSAYYASWAKGRFTISKTSSTTVTLQMTSLTAADTATYFCARAGYYNYGSAGDIYPSSFKLWGPGTLVTVSS VL: DIVMTQTPASVEAAVGGTVTINCQASQSISTALAWYQQKPGQPPKLLIYTASKVASGVPSRFSGSGSGTQFTLTISDLECADAATYYCQNYYYSSSSITFGGGTEVVVK",–,–,–,Fold decrease in affinity [2]: > 100 fold

# The next lines start with results.
Fold decrease in affinity [1],EC50 [3],Fold decrease in affinity [4],Binder,further results
–,0.0746 nM,0.45 fold,"98G10-12 (antibody, V domains shown, also called 98G10 T75D (VH)) VH: QEQLEESGGDLVKPEGSLTLTCTASGFSFSASYWICWVRQAPGKGLEWIACIYGGSSGSAYYASWAKGRFTISKDSSTTVTLQMTSLTAADTATYFCARAGYYNYGSAGDIYPSSFKLWGPGTLVTVSS VL: DIVMTQTPASVEAAVGGTVTINCQASQSISTALAWYQQKPGQPPKLLIYTASKVASGVPSRFSGSGSGTQFTLTISDLECADAATYYCQNYYYSSSSITFGGGTEVVVK",–
–,0.0659 nM,0.4 fold,"98G10-11 (antibody, V domains shown, also called 98G10 Q70D (VL)) VH: QEQLEESGGDLVKPEGSLTLTCTASGFSFSASYWICWVRQAPGKGLEWIACIYGGSSGSAYYASWAKGRFTISKTSSTTVTLQMTSLTAADTATYFCARAGYYNYGSAGDIYPSSFKLWGPGTLVTVSS VL: DIVMTQTPASVEAAVGGTVTINCQASQSISTALAWYQQKPGQPPKLLIYTASKVASGVPSRFSGSGSGTDFTLTISDLECADAATYYCQNYYYSSSSITFGGGTEVVVK",–
–,0.119 nM,0.72 fold,"98G10-9 (antibody, V domains shown, also called 98G10 T23K/T81Y (VH), T18R/Q70D/C80P (VL)) VH: QEQLEESGGDLVKPEGSLTLTCKASGFSFSASYWICWVRQAPGKGLEWIACIYGGSSGSAYYASWAKGRFTISKTSSTTVYLQMTSLTAADTATYFCARAGYYNYGSAGDIYPSSFKLWGPGTLVTVSS VL: DIVMTQTPASVEAAVGGRVTINCQASQSISTALAWYQQKPGQPPKLLIYTASKVASGVPSRFSGSGSGTDFTLTISDLEPADAATYYCQNYYYSSSSITFGGGTEVVVK",–
–,0.168 nM,1.02 fold,"98G10-10 (antibody, V domains shown, also called 98G10 T23K/T75D/T81Y (VH), T18R/Q70D/C80P (VL)) VH: QEQLEESGGDLVKPEGSLTLTCKASGFSFSASYWICWVRQAPGKGLEWIACIYGGSSGSAYYASWAKGRFTISKDSSTTVYLQMTSLTAADTATYFCARAGYYNYGSAGDIYPSSFKLWGPGTLVTVSS VL: DIVMTQTPASVEAAVGGRVTINCQASQSISTALAWYQQKPGQPPKLLIYTASKVASGVPSRFSGSGSGTDFTLTISDLEPADAATYYCQNYYYSSSSITFGGGTEVVVK",–
–,0.106 nM,0.64 fold,"98G10-8 (antibody, V domains shown, also called 98G10 T23K/T75D/T81Y (VH), T18R/C80P (VL)) VH: QEQLEESGGDLVKPEGSLTLTCKASGFSFSASYWICWVRQAPGKGLEWIACIYGGSSGSAYYASWAKGRFTISKDSSTTVYLQMTSLTAADTATYFCARAGYYNYGSAGDIYPSSFKLWGPGTLVTVSS VL: DIVMTQTPASVEAAVGGRVTINCQASQSISTALAWYQQKPGQPPKLLIYTASKVASGVPSRFSGSGSGTQFTLTISDLEPADAATYYCQNYYYSSSSITFGGGTEVVVK",–
–,0.133 nM,0.81 fold,"98G10-7 (antibody, V domains shown, also called 98G10 T23K/T81Y (VH), T18R/C80P (VL)) VH: QEQLEESGGDLVKPEGSLTLTCKASGFSFSASYWICWVRQAPGKGLEWIACIYGGSSGSAYYASWAKGRFTISKTSSTTVYLQMTSLTAADTATYFCARAGYYNYGSAGDIYPSSFKLWGPGTLVTVSS VL: DIVMTQTPASVEAAVGGRVTINCQASQSISTALAWYQQKPGQPPKLLIYTASKVASGVPSRFSGSGSGTQFTLTISDLEPADAATYYCQNYYYSSSSITFGGGTEVVVK",–
–,0.168 nM,1.02 fold,"98G10-6 (antibody, V domains shown, also called 98G10 T81Y (VH), T18R/C80P (VL)) VH: QEQLEESGGDLVKPEGSLTLTCTASGFSFSASYWICWVRQAPGKGLEWIACIYGGSSGSAYYASWAKGRFTISKTSSTTVYLQMTSLTAADTATYFCARAGYYNYGSAGDIYPSSFKLWGPGTLVTVSS VL: DIVMTQTPASVEAAVGGRVTINCQASQSISTALAWYQQKPGQPPKLLIYTASKVASGVPSRFSGSGSGTQFTLTISDLEPADAATYYCQNYYYSSSSITFGGGTEVVVK",–
